{"source": "paper doi:10.1101/2021.10.27.466211", "about": "(bioRxiv, 2021)", "proteins": {"B1": {"name": "PomA-L22C/T33C (natural protein, Vibrio alginolyticus, UniProt O06873 1-253, looked up)", "chain": "MDLATLLGLIGGFAFVIMAMVCGGSIGMFVDVCSILIVVGGSIFVVLMKFTMGQFFGATKIAGKAFMFKADEPEDLIAKIVEMADAARKGGFLALEEMEINNTFMQKGIDLLVDGHDADVVRAALKKDIALTDERHTQGTGVFRAFGDVAPAMGMIGTLVGLVAMLSNMDDPKAIGPAMAVALLTTLYGAILSNMVFFPIADKLSLRRDQETLNRRLIMDGVLAIQDGQNPRVIDSYLKNYLNEGKRALEIDE"}}, "target": "the molecule itself", "experiment": "cross-linking", "data": [{"protein": "B1", "values": [{"measurement": "stoichiometry N", "value": "≤ 5"}]}]}
